Reference: paper PMC4618531 (BMC Microbiology, 2015)

Experiments:
[1] = target: Ralstonia solanacearum FabG1 (3-ketoacyl-ACP reductase, RSc1052), N-terminal hexahistidine-tagged (Ralstonia solanacearum GMI1000); assay: SEC
RsFabG2 = target: T1, RsFabG2 (Ralstonia pseudosolanacearum, UniProt Q8XSV8); details: 50 μM NADPH, malonyl-ACP plus octanoyl-ACP or tetradecanoyl-ACP, 0.1 M sodium phosphate pH 7.0, 37 °C
T1 construct: gene fabG2

[2] = target: Ralstonia solanacearum FabG2 (3-ketoacyl-ACP reductase, RSp0359), N-terminal hexahistidine-tagged (Ralstonia solanacearum GMI1000); assay: SEC
purified protein [3] = substrate: CC(=O)CC(=O)SCCNC(=O)CCNC(=O)[C@H](O)C(C)(C)COP(=O)(O)OP(=O)(O)OC[C@H]1O[C@@H](n2cnc3c(N)ncnc32)[C@H](O)[C@@H]1OP(=O)(O)O; assay: purified protein; details: 200 μM NADPH, 0.1 M sodium phosphate pH 7, 0.1 M LiCl
purified protein [4] = substrate: NC(=O)C1=CN([C@@H]2O[C@H](COP(=O)(O)OP(=O)(O)OC[C@H]3O[C@@H](n4cnc5c(N)ncnc54)[C@H](OP(=O)(O)O)[C@@H]3O)[C@@H](O)[C@H]2O)C=CC1; assay: purified protein; details: 200 μM acetoacetyl-CoA, 0.1 M sodium phosphate pH 7, 0.1 M LiCl, varied: cofactor

Molecule “Ralstonia solanacearum FabG1 (3-ketoacyl-ACP reductase, RSc1052), N-terminal hexahistidine-tagged (enzyme)” has a stoichiometry N [1] of 4.

With `NC(=O)C1=CN([C@@H]2O[C@H](COP(=O)(O)OP(=O)(O)OC[C@H]3O[C@@H](n4cnc5c(N)ncnc54)[C@H](OP(=O)(O)O)[C@@H]3O)[C@@H](O)[C@H]2O)C=CC1` [NADPH] the “reconstituted 3-ketoacyl-ACP reduction with EcFabB and EcFabZ, urea gel” value (RsFabG2) was “Upon the addition of NADPH, a 3-ketoacyl-ACP reductase (EcFabG, RsFabG1 or RsFabG2) and EcFabZ”.

“Ralstonia solanacearum FabG2 (3-ketoacyl-ACP reductase, RSp0359), N-terminal hexahistidine-tagged (enzyme)” was tested, and the stoichiometry N [2] was 4.

B1: EcFabG (Escherichia coli K-12) (protein)
chain: MNFEGKIALVTGASRGIGRAIAETLAARGAKVIGTATSENGAQAISDYLGANGKGLMLNVTDPASIESVLEKIRAEFGEVDILVNNAGITRDNLLMRMKDEEWNDIIETNLSSVFRLSKAVMRAMMKKRHGRIITIGSVVGTMGNGGQANYAAAKAGLIGFSKSLAREVASRGITVNVVAPGFIETDMTRALSDDQRAGILAQVPAGRLGGAQEIANAVAFLASDEAAYITGETLHVNGGMYMV
In the case of B1, the Km (purified protein [3]) is reported as 4372.6 ± 105.1 µM, the Vmax (purified protein [3]) is reported as 97 µmol/min/mg and the kcat (purified protein [3]) is reported as 45.28 ± 4.3 s⁻¹. For the same molecule, the Km (purified protein [4]) was 5.41 ± 1.3 µM, the Vmax (purified protein [4]) was 3.54 µmol/min/mg and the kcat (purified protein [4]) was 1.65 ± 0.43 s⁻¹.
